Assay results: patent publication US7132274B2, “Method for identifying modulators of CLK-1 and UbiF activity” (priority 2003, dated 2006)

system: E. coli JF496 (ubiF411); experiment: JF496 complementation (growth rescue) assay; assay type: cell-based; conditions: C. elegans CLK-1 variants expressed in JF496; growth rate relative to wild type CLK-1
Text: JF496 is useful for complementation assays using eukaryotic clk-1. As with all other ubi mutants, JF496 has a weak growth in liquid culture, and cannot use succinate as a unique carbon source. These characteristics were used to develop a gain-of-function assay, where JF496 was transformed with a eukaryotic clk-1 (here from C. elegans) and then wild-type growth was identified. Transgenic E. coli ubiF (Kwon et al., 2000 FEMS Microbiol Lett, 186, 157–161), and clk-1 from proteobacteria (Stenmark et al., 2001 J Biol Chem, 276, 33297–33300) have been tested in JF496.
Growth conditions—For complementation assays, plasmids are freshly transformed by electroporation into E. coli JF496 ubiF(DE3) and grown overnight at 37° C. in 5 mL LB with 50 μg/mL ampicillin. The cultures are diluted 1/10 and OD600 measured. A bacterial volume corresponding to an OD600 of 0.03 in 5 mL is taken, centrifuged and resuspended in 100 μl of M9 medium. It is then added into 5 mL M9 containing 1 mM MgSO4, 20 μM CaCl2, 0.5 μg/mL thiamine, 0.12% casamino acids, 40 μg/mL D-L-methionine, 100 μg/mL L-asparagine, trace metals and 50 μg/mL ampicillin. This medium is supplemented with 0.5% glucose or 0.5% succinate. E. coli JF496 is grown at 37° C. for 8 hours. Samples (700-μL) are taken at 2-hour intervals and the OD600 is measured in order to determine the growth rate.
Growth conditions—as described above in Section 6.1
A selection of CLK-1 variants were constructed by site-directed mutagenesis and cloned into the JF496 system to assess their enzymatic activity relative to the wild type. The respective strains of JF496-clk-1 variants were cultured as described and the growth rate of each were measured. The results as shown in Table 4 indicate that certain residues and regions are not tolerant of amino acid substitution (amino acid substitution is indicated by one-letter codes).

Row | Molecule | Activity in JF496 system
1 | CDB 699: C. elegans CLK-1 variant, mutation E148A (protein, UniProt P48376 9-187, looked up, variant E148A) NADPH-dependent …: AHTAASRQALIEKIIRVDHAGELGADRIYAGQLAVLQGSSVGSVIKKMWDEEKEHLDTMERLAAKHNVPHTVFSPVFSVAAYALGVGSALLGKEGAMACTIAVEELIGQHYNDQLKELLADDPETHKELLKILTRLRDEALHHHDTGVEHDGMKAPAYSALKWIIQTGCKGAIAIAEKI | Inactive
2 | CDB 709: C. elegans CLK-1 variant, mutation Q174A (protein, UniProt P48376 9-187, looked up, variant Q174A) NADPH-dependent …: AHTAASRQALIEKIIRVDHAGELGADRIYAGQLAVLQGSSVGSVIKKMWDEEKEHLDTMERLAAKHNVPHTVFSPVFSVAAYALGVGSALLGKEGAMACTIAVEELIGQHYNDQLKELLADDPETHKELLKILTRLRDEELHHHDTGVEHDGMKAPAYSALKWIIATGCKGAIAIAEKI | Active
3 | CDB 728: C. elegans CLK-1 variant, mutation E112A (protein, UniProt P48376 9-187, looked up, variant E112A) NADPH-dependent …: AHTAASRQALIEKIIRVDHAGELGADRIYAGQLAVLQGSSVGSVIKKMWDEEKEHLDTMERLAAKHNVPHTVFSPVFSVAAYALGVGSALLGKEGAMACTIAVAELIGQHYNDQLKELLADDPETHKELLKILTRLRDEELHHHDTGVEHDGMKAPAYSALKWIIQTGCKGAIAIAEKI | Inactive
4 | CDB 698: C. elegans CLK-1 variant, mutation I115H (protein, UniProt P48376 9-187, looked up, variant I115H) NADPH-dependent …: AHTAASRQALIEKIIRVDHAGELGADRIYAGQLAVLQGSSVGSVIKKMWDEEKEHLDTMERLAAKHNVPHTVFSPVFSVAAYALGVGSALLGKEGAMACTIAVEELHGQHYNDQLKELLADDPETHKELLKILTRLRDEELHHHDTGVEHDGMKAPAYSALKWIIQTGCKGAIAIAEKI | Inactive
5 | CDB 719: C. elegans CLK-1 variant, mutation H63A (protein, UniProt P48376 9-187, looked up, variant H63A) NADPH-dependent …: AHTAASRQALIEKIIRVDHAGELGADRIYAGQLAVLQGSSVGSVIKKMWDEEKEALDTMERLAAKHNVPHTVFSPVFSVAAYALGVGSALLGKEGAMACTIAVEELIGQHYNDQLKELLADDPETHKELLKILTRLRDEELHHHDTGVEHDGMKAPAYSALKWIIQTGCKGAIAIAEKI | Inactive
6 | CDB 720: C. elegans CLK-1 variant, mutation E30A (protein, UniProt P48376 9-187, looked up, variant E30A) NADPH-dependent …: AHTAASRQALIEKIIRVDHAGALGADRIYAGQLAVLQGSSVGSVIKKMWDEEKEHLDTMERLAAKHNVPHTVFSPVFSVAAYALGVGSALLGKEGAMACTIAVEELIGQHYNDQLKELLADDPETHKELLKILTRLRDEELHHHDTGVEHDGMKAPAYSALKWIIQTGCKGAIAIAEKI | Inactive
7 | CDB 711: C. elegans CLK-1 variant, mutation S51P (protein, UniProt P48376 9-187, looked up, variant S51P) NADPH-dependent …: AHTAASRQALIEKIIRVDHAGELGADRIYAGQLAVLQGSSVGPVIKKMWDEEKEHLDTMERLAAKHNVPHTVFSPVFSVAAYALGVGSALLGKEGAMACTIAVEELIGQHYNDQLKELLADDPETHKELLKILTRLRDEELHHHDTGVEHDGMKAPAYSALKWIIQTGCKGAIAIAEKI | Active
8 | CDB 725: C. elegans CLK-1 variant, mutation E147A/H151Q, less active than wild type (protein, UniProt P48376 9-187, looked up, variant E147A H151Q) NADPH-dependent …: AHTAASRQALIEKIIRVDHAGELGADRIYAGQLAVLQGSSVGSVIKKMWDEEKEHLDTMERLAAKHNVPHTVFSPVFSVAAYALGVGSALLGKEGAMACTIAVEELIGQHYNDQLKELLADDPETHKELLKILTRLRDAELHQHDTGVEHDGMKAPAYSALKWIIQTGCKGAIAIAEKI | Partially active
9 | CDB 724: C. elegans CLK-1 variant, mutation E62L (protein, UniProt P48376 9-187, looked up, variant E62L) NADPH-dependent …: AHTAASRQALIEKIIRVDHAGELGADRIYAGQLAVLQGSSVGSVIKKMWDEEKLHLDTMERLAAKHNVPHTVFSPVFSVAAYALGVGSALLGKEGAMACTIAVEELIGQHYNDQLKELLADDPETHKELLKILTRLRDEELHHHDTGVEHDGMKAPAYSALKWIIQTGCKGAIAIAEKI | Active
10 | CDB 726: C. elegans CLK-1 variant, mutation G32D (protein, UniProt P48376 9-187, looked up, variant G32D) NADPH-dependent …: AHTAASRQALIEKIIRVDHAGELDADRIYAGQLAVLQGSSVGSVIKKMWDEEKEHLDTMERLAAKHNVPHTVFSPVFSVAAYALGVGSALLGKEGAMACTIAVEELIGQHYNDQLKELLADDPETHKELLKILTRLRDEELHHHDTGVEHDGMKAPAYSALKWIIQTGCKGAIAIAEKI | Inactive
11 | CDB 690: C. elegans CLK-1 variant, mutation C177A (protein, UniProt P48376 9-187, looked up, variant C177A) NADPH-dependent …: AHTAASRQALIEKIIRVDHAGELGADRIYAGQLAVLQGSSVGSVIKKMWDEEKEHLDTMERLAAKHNVPHTVFSPVFSVAAYALGVGSALLGKEGAMACTIAVEELIGQHYNDQLKELLADDPETHKELLKILTRLRDEELHHHDTGVEHDGMKAPAYSALKWIIQTGAKGAIAIAEKI | Active
12 | CDB 715: C. elegans CLK-1 variant, mutation H151A (protein, UniProt P48376 9-187, looked up, variant H151A) NADPH-dependent …: AHTAASRQALIEKIIRVDHAGELGADRIYAGQLAVLQGSSVGSVIKKMWDEEKEHLDTMERLAAKHNVPHTVFSPVFSVAAYALGVGSALLGKEGAMACTIAVEELIGQHYNDQLKELLADDPETHKELLKILTRLRDEELHAHDTGVEHDGMKAPAYSALKWIIQTGCKGAIAIAEKI | Inactive
13 | CDB 721: C. elegans CLK-1 variant, mutation Y37A (protein, UniProt P48376 9-187, looked up, variant Y37A) NADPH-dependent …: AHTAASRQALIEKIIRVDHAGELGADRIAAGQLAVLQGSSVGSVIKKMWDEEKEHLDTMERLAAKHNVPHTVFSPVFSVAAYALGVGSALLGKEGAMACTIAVEELIGQHYNDQLKELLADDPETHKELLKILTRLRDEELHHHDTGVEHDGMKAPAYSALKWIIQTGCKGAIAIAEKI | Active
14 | CDB 710: C. elegans CLK-1 variant, mutation Y90G (protein, UniProt P48376 9-187, looked up, variant Y90G) NADPH-dependent …: AHTAASRQALIEKIIRVDHAGELGADRIYAGQLAVLQGSSVGSVIKKMWDEEKEHLDTMERLAAKHNVPHTVFSPVFSVAAGALGVGSALLGKEGAMACTIAVEELIGQHYNDQLKELLADDPETHKELLKILTRLRDEELHHHDTGVEHDGMKAPAYSALKWIIQTGCKGAIAIAEKI | Active
15 | CDB 694: C. elegans CLK-1 variant, mutation E148K (protein, UniProt P48376 9-187, looked up, variant E148K) NADPH-dependent …: AHTAASRQALIEKIIRVDHAGELGADRIYAGQLAVLQGSSVGSVIKKMWDEEKEHLDTMERLAAKHNVPHTVFSPVFSVAAYALGVGSALLGKEGAMACTIAVEELIGQHYNDQLKELLADDPETHKELLKILTRLRDEKLHHHDTGVEHDGMKAPAYSALKWIIQTGCKGAIAIAEKI | Inactive
16 | CDB 689: C. elegans CLK-1 variant, mutation C107A (protein, UniProt P48376 9-187, looked up, variant C107A) NADPH-dependent …: AHTAASRQALIEKIIRVDHAGELGADRIYAGQLAVLQGSSVGSVIKKMWDEEKEHLDTMERLAAKHNVPHTVFSPVFSVAAYALGVGSALLGKEGAMAATIAVEELIGQHYNDQLKELLADDPETHKELLKILTRLRDEELHHHDTGVEHDGMKAPAYSALKWIIQTGCKGAIAIAEKI | Active
17 | CDB 723: C. elegans CLK-1 variant, mutation E148K/L149N (protein, UniProt P48376 9-187, looked up, variant E148K L149N) NADPH-dependent …: AHTAASRQALIEKIIRVDHAGELGADRIYAGQLAVLQGSSVGSVIKKMWDEEKEHLDTMERLAAKHNVPHTVFSPVFSVAAYALGVGSALLGKEGAMACTIAVEELIGQHYNDQLKELLADDPETHKELLKILTRLRDEKNHHHDTGVEHDGMKAPAYSALKWIIQTGCKGAIAIAEKI | Inactive
18 | CDB 700: C. elegans CLK-1 variant, mutation C107A/C177A (protein, UniProt P48376 9-187, looked up, variant C107A C177A) NADPH-dependent …: AHTAASRQALIEKIIRVDHAGELGADRIYAGQLAVLQGSSVGSVIKKMWDEEKEHLDTMERLAAKHNVPHTVFSPVFSVAAYALGVGSALLGKEGAMAATIAVEELIGQHYNDQLKELLADDPETHKELLKILTRLRDEELHHHDTGVEHDGMKAPAYSALKWIIQTGAKGAIAIAEKI | Active
